# Numbering of substitutions follows the chain as printed. Bridge positions count the residues as written; N and C are the ends. Ends that are not written are not given here.
# B1: des-^1Lys^25, 28Pro-h-Amylin (peptide)
# peptide: CNTATCATQRLANFLVHSSNNFGPILPSTNVGSNTY
# B2: des-^1Lys^18Arg^25, 28Pro-h-Amylin (peptide)
# peptide: B1 peptide with H17R
# B3: des-^1Lys^25, 28, 29Pro-h-Amylin (peptide)
# peptide: B1 peptide with S28P
# B4: des-^1Lys^18Arg^25, 28, 29Pro-h-Amylin (peptide)
# peptide: B1 peptide with H17R, S28P
# B5: ^25, 28Pro-h-Amylin (peptide)
# peptide: KCNTATCATQRLANFLVHSSNNFGPILPSTNVGSNTY
# B6: ^25, 28, 29Pro-h-Amylin (peptide)
# peptide: B5 peptide with S29P
# modifications: disulfide 2-7; not fully specified (C-terminus)
# B7: ^25Pro^26Val^28, 29Pro-h-Amylin (peptide)
# peptide: B5 peptide with I26V, S29P
# B8: ^2, 7Cyclo-[^2Asp,^7Lys]-h-Amylin (peptide)
# peptide: B5 peptide with C2D, C7K, P25A, P28S
# modifications: lactam 2-7; not fully specified (C-terminus)
# B9: ^18Arg^25, 28, 29Pro-h-Amylin (peptide)
# peptide: B5 peptide with H18R, S29P
# B10: ^18Arg^25, 28Pro-h-Amylin (peptide)
# peptide: B5 peptide with H18R
# Molecular target: amylin receptors (membrane-bound, rat basal forebrain membranes containing the nucleus accumbens and surrounding regions) (rat)
# Test: competition with 125I Bolton-Hunter rat amylin on rat basal forebrain membranes
row,IC50 [nM],Molecule
1,50000,human amylin (hAmylin) (ligand)

# Molecular target: amylin receptors (membrane-bound, rat basal forebrain membranes containing the nucleus accumbens and surrounding regions) (rat)
# Test: as above
# Remark: another data set of the same source
row,IC50 [nM],Molecule
1,0.085,B1
2,0.082,B2
3,0.014,B3
4,0.021,B4
5,0.026,B5
6,0.01,B6
7,0.018,B7
8,0.31,B8
9,0.021,B9
10,0.032,B10
